Laboratory results published in patent US8021833.

Biological target: TSG101 (UniProt Q99816)
Assay: cell-based or functional assay

Chain of UniProt Q99816 (Q99816 2-390 limits assumed): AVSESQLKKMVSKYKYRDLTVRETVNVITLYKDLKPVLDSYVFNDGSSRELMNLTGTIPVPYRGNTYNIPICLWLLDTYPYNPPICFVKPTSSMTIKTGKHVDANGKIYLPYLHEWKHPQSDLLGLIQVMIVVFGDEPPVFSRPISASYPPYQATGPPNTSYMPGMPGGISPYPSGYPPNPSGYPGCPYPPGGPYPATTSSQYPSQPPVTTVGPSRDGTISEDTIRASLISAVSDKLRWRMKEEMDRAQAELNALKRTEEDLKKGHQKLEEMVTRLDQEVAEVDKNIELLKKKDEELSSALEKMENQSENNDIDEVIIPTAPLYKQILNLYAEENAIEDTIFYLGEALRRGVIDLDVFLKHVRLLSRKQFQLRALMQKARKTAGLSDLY

Row | Substance | release of HIV-1 from transfected 293T cells | release of HIV-1 from transfected 293T cells, repeated experiments [% inhibition]
1 | Vps28 mutant with deletion of amino acids 126 to 167, C-terminal Flag tag (from UniProt Q9UK41 1-125; Q9UK41 168-221) | 63 % inhibition | 
2 | Vps28 mutant with deletion of the N-terminal 27 amino acids, C-terminal Flag tag (from UniProt Q9UK41 28-221) | 72 % reduction | 
3 | Vps28ΔC, C-terminal 43-amino acid deletion mutant of Vps28, C-terminal Flag tag (from UniProt Q9UK41 1-178) | 67 % reduction | 53 to 75
